Earlier results on 1 substance are cited in article PMC4243993.

For the series, the target named is His105 (UniProt position 105, PPVKIHCSILA).

Turning to “Iron-sulfur cluster assembly scaffold protein IscU (Escherichia coli)”, the pKa entry was “around 9”.
